Data: US20070072186A1, “Methods and agents for screening for compounds capable of modulating her2 expression” (priority 2003, published 2007)

Assays:
48-kDa polypeptide = assay: UV-crosslinking of 32P-labeled RNA with SKBR3 cytoplasmic extracts; type: binding; conditions: for competition for binding of the 48-kDa polypeptide to full-length, labeled Her2 3′ UTR: FIG. 10B; for UV-crosslinking of the 48-kDa polypeptide to labeled RNA: SKBR3 cytoplasmic extracts, FIG. 10A
Procedure: Total protein from cancer cell lines is incubated with 10 fmoles of ^32P-UTP-labeled RNA for 1 hour at 37° C. in a final volume of 20 μl using Binding Buffer (20 mM Hepes-KOH, pH 7.5, 2.5 mM MgCl2, 100 mM KCl, 20% glycerol, 0.5 mM dithiothreitol, protease inhibitor tablets). Reaction mixtures are UV-irradiated at 254 nm for 10 minutes with a StrataLinker® 11800 (Stratagene; La Jolla, Calif.) in Costar® 96-Well Cell Culture Clusters (CORNING COSTAR Co., Cambridge, Mass.) on ice. The reaction mixtures are then treated with RNAse A (2 mg/ml) for 30 minutes at 37° C. The samples are analyzed by 12% or 10-14% Criterion™ gels (Bio-Rad Laboratories, Inc., Hercules, Calif.) by Sodium Dodecyl Sulfate-Polyacrylamide gel electrophoresis (SDS-PAGE) and are detected by autoradiography.
To study the role of trans-acting factors in modulating interactions between 5′ and 3′ UTRs, in vitro transcripts are synthesized, labeled, and incubated with cytoplasmic extracts from SKBR3 cells. After UV-crosslinking, unprotected areas of labeled RNA are digested with RNAse A, and the remaining labeled RNA molecules are resolved on SDS-PAGE.
Instead, a minimal binding region of […], corresponding to the nucleotide sequence from residue 490 to residue 510 of a 3′ Her2 UTR, is essential for the 48-kDa polypeptide to UV-crosslink to a Her2 3′ UTR. […] In comparison, competition with a 500-fold molar excess of nucleic acid molecules with sequences derived from the Her2 5′ UTR is ineffective in titrating out the 48-kDa polypepide.

[1] = tested on: luciferase reporter gene linked to a 5′ her2 UTR; assay: luciferase reporter constructs with her2 UTRs transfected into a panel of cell lines; type: cell-based; conditions: luciferase activity 48 hours after transfection
Procedure: A luciferase reporter gene is linked to her2 UTRs to make various constructs (see FIG. 2). Each construct is transfected into a panel of cell-lines using Fugene® (Hoffmann-La Roche Inc., Nutley, N.J.), and the luciferase activity is measured 48 hours after transfection. The results are expressed as a fold-increase in luciferase activity over the repression caused by the 5′ her2 UTR linked to the luciferase reporter gene. A 5′ her2 UTR (SEQ ID NO: 6) represses translation of a luciferase reporter gene. […] The greatest modulation is observed in the mammalian cancer cell lines that over-express Her2 protein, SKBR-3 and BT-474, about 13-fold and about 10-fold, respectively, showing that the efficiency of translation of a luciferase reporter gene mRNA in Her2 positive cells is regulated by interactions of regions in the 5′ her2 UTR and the 3′ her2 UTR. Moreover, the effect is more pronounced in high Her2 expressing cells relative to low Her2 expressing cell lines, especially for breast cancer cells.

[2] = tested on: capped-5′+3′ UTR-luciferase RNA; assay: in vitro rabbit reticulocyte translation of capped reporter RNA in the presence of competitor RNA; type: biochemical; conditions: for inhibition of translation of capped-5′+3′ UTR-luciferase RNA relative to absence of competitor RNA: 5-fold molar excess of competitor RNA, 60 minutes at 37° C., FIG. 1
Procedure: A 73-residue region from a 3′ her2 UTR (SEQ ID NO: 1) and an N-terminal 310-residue region from a 3′ her2 UTR (SEQ ID NO: 5) are cloned into a construct downstream of a T7-promoter. RNA encoded for by these regions is synthesized using a T7-in vitro transcription kit (Ambion, Inc.; Austin, Tex.).
To quantitate the maximum level of translation, a capped-5′+3′ UTR-luciferase RNA (0.057 pmoles) is translated in an in vitro rabbit reticulocyte translation system for 60 minutes at 37° C. Then, a capped-5′+3′ UTR-luciferase RNA is translated in the presence of between a 5- to 500-fold molar excess of RNA from either the 73-residue region from a 3′ her2 UTR (SEQ ID NO: 1) or the N-terminal 310-residue region from a 3′ her2 UTR (SEQ ID NO: 5) under the same conditions.
Capped, in vitro-transcribed Her2 5′ UTR-luciferase-Her2 3′ UTR (5H3H-Luc) and vector only-luciferase (Vector-Luc) are translated in the presence or absence of competitor RNA fragments derived from a Her-2 3′ UTR. Nucleic acid molecules derived from nucleotides 468-540 of a Her2 3′ UTR (468-540) and from residues 468-615 of a Her2 3′ UTR (468-615) each contain the 73-nucleotide sequence (SEQ ID NO:1) essential for suppression of 5′ Her2 UTR repression. […] The percentage of inhibition of expression is less in the presence of the 1-310 fragment with respect to the percentage of inhibition of expression in the presence of either of the nucleic acid molecules containing SEQ ID NO: 1, 468-615 and 468-540. The percentage of inhibition for the 1-310 fragment is dose-dependent, whereas even at only a 5-fold molar excess of competitor RNA conatining SEQ ID NO: 1, expression is only at 25% of the maximum level of translation.

Ship-2 uORF = assay: chimeric luciferase constructs with Ship-2 5′ UTR in SKBR3 cells; type: cell-based; conditions: in combination with a Ship-2 5′ UTR, FIG. 7
Source text: Ship-2 mRNA contains a 33 nucleotide uORF (encoding 10 amino acids) that is located 14 nucleotides upstream of the main ORF. The uORF strongly represses translation of the main ORF.
The presence of TRE1 in the 3′ UTR, when in combination with a Ship-2 5′ UTR, increases expression of luciferase about 5-fold relative to luciferase being flanked by 3′ and 5′ Ship-2 UTRs. Luciferase expression increases when flanked by a 5′ Ship-2 UTR and a chimeric 3′ UTR, consisting of 328 residues of Ship-2 3′ UTR flanked by the 5′ and 3′ end seqeunces of the Her-23′ UTR, relative to luciferase being flanked by 3′ and 5′ Ship-2 UTRs. […] The presence of the 3′ Her2 UTR residues 1-110 (SEQ ID NO: 28) in the chimeric 3′ UTR results in a slight increase in luciferase expression relative to 3′ Ship-2 UTR. Suppression of translational repression occurs in cells with chimeric constructs expressing a Ship-2 3′ UTR containing only TRE1 (SEQ ID NO: 1) from a Her-23′ UTR.

[3] = tested on: luciferase reporter gene linked to a 5′ her2 UTR; assay: luciferase constructs with 3′ her2 UTR variants transfected into SKBR3 cells; type: cell-based; conditions: 48 hours after transfection
Procedure: A luciferase reporter gene is linked to 3′ her2 UTR variants to make various constructs (see FIG. 6). Each construct is transfected into cell-lines, SKBR3 cells in particular, using Fugene® (Hoffmann-La Roche Inc., Nutley, N.J.), and the luciferase activity is measured 48 hours after transfection. The results are expressed as a fold-increase in luciferase activity over the repression caused by a 5′ her2 UTR (SEQ ID NO: 6) linked to the luciferase reporter gene (see FIG. 6). A 5′ her2 UTR represses translation of a reporter gene, such as luciferase.

B1: Her2 5′ UTR: naturally occurring Her2 5′ UTR; RNA probe and competitor in UV-crosslinking (nucleic acid)
DNA: GGCTGCTTGAGGAAGTATAAGAATGAAGTTGTGAAGCTGAGATTCCCCTCCATTGGGACCGGAGAAACCAGGGGAGCCCCCCGGGCAGCCGCGCGCCCCTTCCCACGGGGCCCTTTACTGCGCCGCGCGCCCGGCCCCCACCCCTCGCAGCACCCCGCGCCCCGCGCCCTCCCAGCCGGGTCCAGCCGGAGCCATGGGGCCGGAGCCGCAGTGAGCACC
- competition for binding of the 48-kDa polypeptide to full-length, labeled Her2 3′ UTR (48-kDa polypeptide; 500-fold molar excess of competitor): ineffective
- UV-crosslinking of the 48-kDa polypeptide to labeled RNA (48-kDa polypeptide): does not crosslink

B2: 3′ her2 UTR: naturally occurring Her2 3′ UTR, linked downstream of luciferase in reporter constructs (nucleic acid)
DNA: TGAACCAGAAGGCCAAGTCCGCAGAAGCCCTGATGTGTCCTCAGGGAGCAGGGAAGGCCTGACTTCTGCTGGCATCAAGAGGTGGGAGGGCCCTCCGACCACTTCCAGGGGAACCTGCCATGCCAGGAACCTGTCCTAAGGAACCTTCCTTCCTGCTTGAGTTCCCAGATGGCTGGAAGGGGTCCAGCCTCGTTGGAAGAGGAACAGCACTGGGGAGTCTTTGTGGATTCTGAGGCCCTGCCCAATGAGACTCTAGGGTCCAGTGGATGCCACAGCCCAGCTTGGCCCTTTCCTTCCAGATCCTGGGTACTGAAAGCCTTAGGGAAGCTGGCCTGAGAGGGGAAGCGGCCCTAAGGGAGTGTCTAAGAACAAAAGCGACCCATTCAGAGACTGTCCCTGAAACCTAGTACTGCCCCCCATGAGGAAGGAACAGCAATGGTGTCAGTATCCAGGCTTTGTACAGAGTGCTTTTCTGTTTAGTTTTTACTTTTTTTGTTTTGTTTTTTTAAAGACGAAATAAAGACCCAGGGGAGAATGGGTGTTGTATGGGGAGGCAAGTGTGGGGGGTCCTTCTCCACACCCACTTTGTCCATTTGCAAATATATTTTGGAAAAC
- Fold-increase over 5′ UTR Average ([1]; 293T): 1.54 ± 1.0
- Fold-increase over 5′ UTR Average ([1]; HeLa): 2.23 ± 0.5
- Fold-increase over 5′ UTR Average ([1]; Hs578.1): 2 ± 0.5
- UV-crosslinking of the 48-kDa polypeptide to labeled RNA (48-kDa polypeptide): crosslinks

B3: SEQ ID NO: 1: 73-residue region (residues 468-540) from a 3′ her2 UTR, translational regulatory element TRE1; used as competitor RNA (nucleic acid)
DNA: CTTTTCTGTTTAGTTTTTACTTTTTTTGTTTTGTTTTTTTAAAGACGAAATAAAGACCCAGGGGAGAATGGGT
modifications: competitor RNA from UTR region, further chemistry not given here
- competition for binding of the 48-kDa polypeptide to full-length, labeled Her2 3′ UTR (48-kDa polypeptide; 50-fold molar excess of unlabeled competitor): prevents binding
- UV-crosslinking of the 48-kDa polypeptide to labeled RNA (48-kDa polypeptide): crosslinks
- inhibition of translation of capped-5′+3′ UTR-luciferase RNA relative to absence of competitor RNA [2]: about 75%
- increase of luciferase expression relative to luciferase flanked by 3′ and 5′ Ship-2 UTRs (Ship-2 uORF): about 5 fold

B4: SEQ ID NO: 29: Her2 3′ UTR variant with nucleotides 1-110 deleted at the 5′ end, in a luciferase construct (nucleic acid)
DNA: CCTGCCATGCCAGGAACCTGTCCTAAGGAACCTTCCTTCCTGCTTGAGTTCCCAGATGGCTGGAAGGGGTCCAGCCTCGTTGGAAGAGGAACAGCACTGGGGAGTCTTTGTGGATTCTGAGGCCCTGCCCAATGAGACTCTAGGGTCCAGTGGATGCCACAGCCCAGCTTGGCCCTTTCCTTCCAGATCCTGGGTACTGAAAGCCTTAGGGAAGCTGGCCTGAGAGGGGAAGCGGCCCTAAGGGAGTGTCTAAGAACAAAAGCGACCCATTCAGAGACTGTCCCTGAAACCTAGTACTGCCCCCCATGAGGAAGGAACAGCAATGGTGTCAGTATCCAGGCTTTGTACAGAGTGCTTTTCTGTTTAGTTTTTACTTTTTTTGTTTTGTTTTTTTAAAGACGAAATAAAGACCCAGGGGAGAATGGGTGTTGTATGGGGAGGCAAGTGTGGGGGGTCCTTCTCCACACCCACTTTGTCCATTTGCAAATATATTTTGGAAAAC
modifications: luciferase construct
notes: Her2 3′ UTR variant with nucleotides 1-110 deleted at the 5′ end, in a luciferase construct
- fold-increase in luciferase expression over 5′ her2 UTR+Luc [3]: 1.7±0.9 fold

B5: SEQ ID NO: 5: first 310 nucleotides of the Her2 3′ UTR, does not contain SEQ ID NO: 1; competitor RNA (nucleic acid)
DNA: TGAACCAGAAGGCCAAGTCCGCAGAAGCCCTGATGTGTCCTCAGGGAGCAGGGAAGGCCTGACTTCTGCTGGCATCAAGAGGTGGGAGGGCCCTCCGACCACTTCCAGGGGAACCTGCCATGCCAGGAACCTGTCCTAAGGAACCTTCCTTCCTGCTTGAGTTCCCAGATGGCTGGAAGGGGTCCAGCCTCGTTGGAAGAGGAACAGCACTGGGGAGTCTTTGTGGATTCTGAGGCCCTGCCCAATGAGACTCTAGGGTCCAGTGGATGCCACAGCCCAGCTTGGCCCTTTCCTTCCAGATCCTGGGTAC
- inhibition of translation of capped-5′+3′ UTR-luciferase RNA relative to absence of competitor RNA [2]: not significantly inhibited
- percentage of inhibition of expression, dependence on amount of competitor ([2]; competitor RNA, FIG. 9): dose-dependent
